B1: Storkhead-box protein 2, residues 64 to 141; numbered along this chain, Q9P2F5 (parent)
chain: SPISQSQFIPLGEILCLAISAMNSARKPVTQEALMEHLTTCFPGVPTPSQEILRHTLNTLVRERKIYPTPDGYFIVTP

± gives the uncertainty stated by the source.

Variants of B1 are the subject of the series. The experiment in a line: abundance fitness (aPCA) (normalised: wild type 0, dead -1); higher = more abundant; growth selection in yeast, the domain comes from the species named. The following applies: Homo sapiens.
SPISQSQFIPLGEILCLAISAMNSARKPVTQEALMEHLTTCFPGVPTPSQEILRHTLNTLVRERKIYPTGDGYFIVTP: the abundance fitness was -0.027 ± 0.039. Turning to SPISQSQFIPLGEILCLAISAMNSARKPVTQEALMEHLTTCFPGVPTPSQEILLHTLNTLVRERKIYPTPDGYFIVTP, the abundance fitness was -0.011 ± 0.039.

As to SPISQSQFIPLGEILCLAISAMNSARKPVTQEALMEHLTTCFPGVPTPSQEILCHTLNTLVRERKIYPTPDGYFIVTP, the abundance fitness is -0.193 ± 0.17.

Take SPISQSQFIPLGEILCLAISAMNSARKPVTQEALMEHLTTCFPGVPTPSAEILRHTLNTLVRERKIYPTPDGYFIVTP: the abundance fitness is -0.011 ± 0.053.

Regarding SPISQSQFIPLGEILCLAISAMNSARKPVTQEALMEHLTTCFPGVPTPSQEILRHTLNTLVRERKIYPTPDGYQIVTP, the abundance fitness came out at 0.006 ± 0.078. In the case of SPISQSQFIPLGEILCLAISAMNSARKPVTQEALMEHLTTCFPGVPTPSQEILRHTLNTLVRERKIYPTPDGYPIVTP it was -0.445 ± 0.064; in that of SPISQSQFIPLGEILCLAISAMNSARKPVTQEALMEHLTTCFPGVPTPSQEILRHTLNTLVRERKIYPTPDGYCIVTP, -0.042 ± 0.074; in that of SPISQSQFIPLGEILCLAISAMNSARKPVTQEALMEHLTTCFPGVPTPSQEILRHTLNTLVRERKIYPTPDGYFIVCP, 0.04 ± 0.072. As for SPISQSQFIPLGEILCLAISAMNSARKPVTQEALMEHLTTCFPGVPTPSQEILRHTLNTLVRERKRYPTPDGYFIVTP, the abundance fitness was -1.17 ± 0.12. SPISQSQFIPLGEILCLAISAMNSARKPVTQEALMEHLTTCFPGVPTPSQEILRHTLNTLVRERKLYPTPDGYFIVTP: the abundance fitness was -0.05 ± 0.041. In the case of SPISQSQFIPLGCILCLAISAMNSARKPVTQEALMEHLTTCFPGVPTPSQEILRHTLNTLVRERKIYPTPDGYFIVTP it was -0.152 ± 0.081. As for SPISQSQFIPLGEILCLAISAMNSARKPVTQEALMEHLTTCFPGVPTPSQEILRHTLNTLVRERKIYPTPDGYFPVTP, the abundance fitness is -0.039 ± 0.051. In the case of SPISQSQFIPLGEILCLAISAMNSARKPVTPEALMEHLTTCFPGVPTPSQEILRHTLNTLVRERKIYPTPDGYFIVTP it was 0.018 ± 0.036.

In the case of SPISQSQFIPLGEILCLAISAMNSARKPVTGEALMEHLTTCFPGVPTPSQEILRHTLNTLVRERKIYPTPDGYFIVTP, the abundance fitness is -0.064 ± 0.029.

Consider SPISQSQFIPLGEILCLAISAMNSARKPVTQEALMEHLTTCFPGVPTPSQEILRHTLNTLVREQKIYPTPDGYFIVTP, for which the abundance fitness was -0.043 ± 0.099. Regarding SPISQSQFIPLGEILCLAISAMNSARKPVTQEALMEHLTTCFPGVPTPSQEILRHTLNTLVREMKIYPTPDGYFIVTP, the abundance fitness was -0.138 ± 0.079. For the variant SPISQSQFIPLGEILCLAISAMNSARKPVTQEALMEHLTTCFPGVPTPSQEILRHTLNTLVRERKIYPTPDGKFIVTP, the abundance fitness is -0.085 ± 0.1. In the case of SPISQSQFIPLGEILCLAISAMNSARKPVTQEALMEHVTTCFPGVPTPSQEILRHTLNTLVRERKIYPTPDGYFIVTP it was -0.075 ± 0.047; in that of SPISQSQFIPLGEILCLAISAMNSARKPVTQEALMEHLTTWFPGVPTPSQEILRHTLNTLVRERKIYPTPDGYFIVTP, -0.088 ± 0.056.

In the case of SPISQSQFIPLGEILCLAISAMNSARKPVTQEALMEHLLTCFPGVPTPSQEILRHTLNTLVRERKIYPTPDGYFIVTP, the abundance fitness was -0.095 ± 0.04. In the case of SPISQSQFIPLGEILCLAIGAMNSARKPVTQEALMEHLTTCFPGVPTPSQEILRHTLNTLVRERKIYPTPDGYFIVTP it was -0.039 ± 0.037; in that of SPISQSQFIPLGEILCLAISAMNSARKPVTQEALMEHLTTCFPGVPTPSQEILRHTLNTLVRERKIYPTPQGYFIVTP, -0.054 ± 0.075; in that of SPISQSQFIPLGEILCLAISAMDSARKPVTQEALMEHLTTCFPGVPTPSQEILRHTLNTLVRERKIYPTPDGYFIVTP, -0.061 ± 0.083. Then SPISQSQFIPLGEILCLAISAMNSARKPVTQEALMEHLTTCFPGVPTPSQEILRHTLNTLNRERKIYPTPDGYFIVTP, with -0.432 ± 0.28; and SPISQSQFIPLGEILCLAISAMNSARKPVTQEALMEHLTTCFPGVPTPSQEILRHTSNTLVRERKIYPTPDGYFIVTP, with -0.799 ± 0.068; and SPISQSQFIPLGEILCLAISAMNSARKPVTQEALMEHLTTCFPGVPTPSQEILRHTGNTLVRERKIYPTPDGYFIVTP, with -1.01 ± 0.082.

Turning to SPISQSQFIPLGEILCLAISAMNSARKPVTQEALMEHLTTCFPGVPTPSQEILRHTLFTLVRERKIYPTPDGYFIVTP, the abundance fitness is -0.172 ± 0.068. With SPISQSQFIPLGEILCLAISAMNSARKPVTQEALMEHLTTCFPGVPTPSQEILRHTLATLVRERKIYPTPDGYFIVTP, the abundance fitness amounted to 0.033 ± 0.04. Then SPISQSQFIPLGEILCLAISAMNSARKPVTQEALMEHLTTCFPGVPTPSQEWLRHTLNTLVRERKIYPTPDGYFIVTP, with -0.019 ± 0.056. Turning to SPISQSQFIPLGEILCLAISAMNSARKPVTQEALMEHLTTCFPGVPTPSQEPLRHTLNTLVRERKIYPTPDGYFIVTP, the abundance fitness is -0.654 ± 0.09.

Take SPISQSQFIPLGEILCAAISAMNSARKPVTQEALMEHLTTCFPGVPTPSQEILRHTLNTLVRERKIYPTPDGYFIVTP: the abundance fitness was found to be 0.005 ± 0.04.

Take SPISQSQFIPLGEILCLAISAMNSARKPVTQEALMEHLTTCFQGVPTPSQEILRHTLNTLVRERKIYPTPDGYFIVTP: the abundance fitness was -0.057 ± 0.064. With SPISQSQFIPLGEILCLAISAMNSARKPVTQEALMEHLTTCFPGVPTPSQEILRHTLNTSVRERKIYPTPDGYFIVTP, the abundance fitness was -0.828 ± 0.052.

As to SPISQSQFIPLGEILCLAISAMNSARKPCTQEALMEHLTTCFPGVPTPSQEILRHTLNTLVRERKIYPTPDGYFIVTP, the abundance fitness is 0.02 ± 0.052.

For SPISQSQFIPLGEILCLAISAKNSARKPVTQEALMEHLTTCFPGVPTPSQEILRHTLNTLVRERKIYPTPDGYFIVTP, the abundance fitness is -0.403 ± 0.064.
